Patent WO2007076336A1

Molecular target: Human CGRP (Example 4, isoform not stated) (human) (UniProt P80511)
Assay: cell-based or functional assay

Chain of UniProt P80511 (P80511 2-92 limits assumed): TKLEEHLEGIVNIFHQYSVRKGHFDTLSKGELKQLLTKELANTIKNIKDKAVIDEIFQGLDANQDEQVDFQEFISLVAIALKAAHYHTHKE

IC50, inhibition of CGRP-induced cAMP in SK-N-MC cells (HTRF): 10.1 nM
Substance: monoclonal antibody C7113 (Sigma-Aldrich, St. Louis, MO)
